Measurements: patent publication US20240116985A1 (published 2024)
Starred links: 1 amine or outer side, 2 acyl side, 3 side chain; linkers in the order of their positions; H or OH if unused. Positions of bridges follow the written chain, without caps; N, C: chain ends. Non-standard residues stand in square brackets, D forms with d. Primed or numbered codes have the meaning given here. B5(16) = 2-amino-2-(pent-4-en-1-yl)hept-6-enoic acid = 2,2-bis(4-pentenyl)glycine (stitching residue), C=CCCCC(CCCC=C)(N[*:1])C(=O)[*:2]; B5(4) = 2,2-bis(4-pentenyl)glycine = 2-amino-2-(pent-4-en-1-yl)hept-6-enoic acid (stitching residue), C=CCCCC(CCCC=C)(N[*:1])C(=O)[*:2]; B5(9) = 2-amino-2-(pent-4-en-1-yl)hept-6-enoic acid (2,2-bis(4-pentenyl)glycine), C=CCCCC(CCCC=C)(N[*:1])C(=O)[*:2]; B5(14) = 2-amino-2-(pent-4-en-1-yl)hept-6-enoic acid (bis-pentenylglycine), C=CCCCC(CCCC=C)(N[*:1])C(=O)[*:2]; B5 = 2-amino-2-(pent-4-en-1-yl)hept-6-enoic acid, C=CCCCC(CCCC=C)(N[*:1])C(=O)[*:2]; WCHO = 1-formyl-L-tryptophan, O=Cn1cc(C[C@H](N[*:1])C(=O)[*:2])c2ccccc21; Phe(3,4,5-F3) = N[C@@H](Cc1cc(F)c(F)c(F)c1)C(=O)O; Ala(2-furyl) = N[C@@H](Cc1ccco1)C(=O)O; Bta = N[C@@H](Cc1csc2ccccc12)C(=O)O; αAllylPro = C=CC[C@@]1(C(=O)O)CCCN1; S8 = C=CCCCCCC[C@](C)(N)C(=O)O

B1: I-342 (peptide)
peptide: Ac-[αAllylPro]DA[B5(9)]DDAAFT[S8]F[Bta]Q-NH2
modifications: staple 1-4, 4-11
notes: Stapled peptide composition; also called Ac-PL3-Asp-Ala-B5-Asp-Asp-Ala-Ala-Phe-Thr-S8-Phe-BztA-Gln-NH2
B2: I-347 (peptide)
peptide: XDQXDDAAFVXFXQ
modifications: not fully specified; N-terminal Ac; PL3 at 1; B5 at 4; S8 at 11; BztA at 13; C-terminal NH2; stapled PL3-B5 and B5-S8 (olefin metathesis)
notes: Stapled peptide composition; also called Ac-PL3-Asp-Gln-B5-Asp-Asp-Ala-Ala-Phe-Val-S8-Phe-BztA-Gln-NH2
B3: I-346 (peptide)
peptide: XDQXDDAAFVXFXQ
modifications: not fully specified; N-terminal Ac; PL3 at 1; B5 at 4; S8 at 11; BztA at 13; C-terminal NH2; stapled PL3-B5 and B5-S8 (olefin metathesis)
notes: as for B2
B4: I-341 (peptide)
peptide: Ac-[αAllylPro]DA[B5(9)]DDAAFV[S8]Y[Bta]Q-NH2
modifications: staple 1-4, 4-11
notes: Stapled peptide composition; also called Ac-PL3-Asp-Ala-B5-Asp-Asp-Ala-Ala-Phe-Val-S8-Tyr-BztA-Gln-NH2
B5: I-350 (peptide)
peptide: XDAXADAAFVXFWQ
modifications: not fully specified; N-terminal Ac; PL3 at 1; B5 at 4; S8 at 11; C-terminal NH2; stapled PL3-B5 and B5-S8 (olefin metathesis)
notes: Stapled peptide composition; also called Ac-PL3-Asp-Ala-B5-Ala-Asp-Ala-Ala-Phe-Val-S8-Phe-Trp-Gln-NH2
B6: I-348 (peptide)
peptide: XAAXDDAAFVXFWQ
modifications: not fully specified; N-terminal Ac; PL3 at 1; B5 at 4; S8 at 11; C-terminal NH2; stapled PL3-B5 and B5-S8 (olefin metathesis)
notes: Stapled peptide composition; also called Ac-PL3-Ala-Ala-B5-Asp-Asp-Ala-Ala-Phe-Val-S8-Phe-Trp-Gln-NH2
B7: I-352 (peptide)
peptide: Ac-[αAllylPro]DA[B5(16)]DAAAFV[S8]FWQ-NH2
modifications: staple 1-4, 4-11
notes: Stapled peptide composition; also called Ac-PL3-Asp-Ala-B5-Asp-Ala-Ala-Ala-Phe-Val-S8-Phe-Trp-Gln-NH2
B8: I-328 (peptide)
peptide: Ac-[αAllylPro]DA[B5(4)]DDAA[Ala(2-furyl)]V[S8]FWQ-NH2
modifications: staple 1-4, 4-11; not fully specified; printed as Ac-PL3-Asp-Ala-B5-Asp-Asp-Ala-Ala-2FurA-Val-S8-Phe-Trp-Gln-NH2
notes: Stapled peptide composition; also called Ac-PL3-Asp-Ala-B5-Asp-Asp-Ala-Ala-2FurA-Val-S8-Phe-Trp-Gln-NH2
B9: I-331 (peptide)
peptide: Ac-[αAllylPro]DA[B5(14)]DDAAHV[S8]FWQ-NH2
modifications: staple 1-4, 4-11; not fully specified (residue 9)
notes: Stapled peptide composition; also called Ac-PL3-Asp-Ala-B5-Asp-Asp-Ala-Ala-3meH-Val-S8-Phe-Trp-Gln-NH2
B10: I-337 (peptide)
peptide: XDAXDDAAFVXFXQ
modifications: not fully specified; N-terminal Ac; PL3 at 1; B5 at 4; S8 at 11; 4CBMF at 12; BztA at 13; C-terminal NH2; stapled PL3-B5 and B5-S8 (olefin metathesis)
notes: Stapled peptide composition; also called Ac-PL3-Asp-Ala-B5-Asp-Asp-Ala-Ala-Phe-Val-S8-4CBMF-BztA-Gln-NH2
B11: I-351 (peptide)
peptide: XDAXADAAFVXFWQ
modifications: not fully specified; N-terminal Ac; PL3 at 1; B5 at 4; S8 at 11; C-terminal NH2; stapled PL3-B5 and B5-S8 (olefin metathesis)
notes: as for B5
B12: I-333 (peptide)
peptide: Ac-[αAllylPro]DA[B5(4)]DDAAFS[S8]F[WCHO]S-NH2
modifications: staple 1-4, 4-11
notes: Stapled peptide composition; also called Ac-PL3-Asp-Ala-B5-Asp-Asp-Ala-Ala-Phe-Ser-S8-Phe-WCHO-Ser-NH2
B13: I-349 (peptide)
peptide: XAAXDDAAFVXFWQ
modifications: not fully specified; N-terminal Ac; PL3 at 1; B5 at 4; S8 at 11; C-terminal NH2; stapled PL3-B5 and B5-S8 (olefin metathesis)
notes: as for B6
B14: I-338 (peptide)
peptide: XDAXDDAAFVXFXQ
modifications: not fully specified; N-terminal Ac; PL3 at 1; B5 at 4; S8 at 11; 4CBMF at 12; BztA at 13; C-terminal NH2; stapled PL3-B5 and B5-S8 (olefin metathesis)
notes: as for B10
B15: I-332 (peptide)
peptide: Ac-[αAllylPro]DA[B5(14)]DDAAHV[S8]FWQ-NH2
modifications: staple 1-4, 4-11; not fully specified (residue 9)
notes: as for B9
B16: I-200 (peptide)
peptide: Ac-[αAllylPro]NA[B5(4)]DEAAFV[S8]FWQ-NH2
modifications: staple 1-4, 4-11
notes: Stapled peptide composition; this is the later-eluting isomer composition
B17: I-199 (peptide)
peptide: Ac-[αAllylPro]NA[B5]DEAAFV[S8]FWQ-NH2
modifications: staple 1-4, 4-11
notes: Stapled peptide composition; this is the earlier-eluting isomer composition
B18: I-212 (peptide)
peptide: Ac-[αAllylPro]DA[B5(4)]DEAA[Phe(3,4,5-F3)]V[S8]FWQ-NH2
modifications: staple 1-4, 4-11
notes: Stapled peptide composition
B19: I-211 (peptide)
peptide: Ac-[αAllylPro]DA[B5(4)]DEAA[Phe(3,4,5-F3)]V[S8]FWQ-NH2
modifications: staple 1-4, 4-11; not fully specified; printed as Ac-PL3-Asp-Ala-B5-Asp-Glu-Ala-Ala-345FF-Val-S8-Phe-Trp-Gln-NH2
notes: Stapled peptide composition

target: T1, full-length beta-Catenin (Uniprot ID P35222) (Homo sapiens (Human), UniProt P35222 1-781); assay: fluorescence polarization competition vs 5FAM-TCF4(10-53) on full-length beta-catenin
T1 construct: also called bCat; B-Catenin
T1 sequence: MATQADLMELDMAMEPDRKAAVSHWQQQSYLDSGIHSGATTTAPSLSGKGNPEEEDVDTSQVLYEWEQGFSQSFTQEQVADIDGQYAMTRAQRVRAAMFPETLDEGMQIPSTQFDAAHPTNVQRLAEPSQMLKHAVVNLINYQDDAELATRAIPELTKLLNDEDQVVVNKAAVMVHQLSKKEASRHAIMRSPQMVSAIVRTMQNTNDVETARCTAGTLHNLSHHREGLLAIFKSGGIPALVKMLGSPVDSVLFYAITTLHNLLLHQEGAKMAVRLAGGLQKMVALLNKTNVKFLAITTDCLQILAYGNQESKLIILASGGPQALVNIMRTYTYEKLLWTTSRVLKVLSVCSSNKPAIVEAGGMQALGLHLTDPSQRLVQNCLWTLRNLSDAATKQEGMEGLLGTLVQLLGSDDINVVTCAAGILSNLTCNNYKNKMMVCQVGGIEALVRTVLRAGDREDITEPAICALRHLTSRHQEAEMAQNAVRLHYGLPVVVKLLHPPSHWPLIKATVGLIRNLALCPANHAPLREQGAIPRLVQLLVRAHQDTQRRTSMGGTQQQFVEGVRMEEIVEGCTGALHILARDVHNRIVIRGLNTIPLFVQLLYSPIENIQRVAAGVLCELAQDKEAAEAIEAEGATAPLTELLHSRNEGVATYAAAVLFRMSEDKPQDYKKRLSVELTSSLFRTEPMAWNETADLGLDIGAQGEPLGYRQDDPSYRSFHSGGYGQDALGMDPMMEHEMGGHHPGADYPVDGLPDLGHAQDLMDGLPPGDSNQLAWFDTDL
Procedure: (§1) The plate was incubated protected from light for 60 minutes at 20° C. prior to read. Reads were performed on a CLARIOstar plate reader (BMG Labtech) in duplicate, and data were fitted to a 1:1 binding model with hill slope using an in-house script. All provided concentrations are final concentrations.

Which IC50 does the source give for B1 here?
The IC50 was 0.0585 µM.

How did the IC50 turn out when B2 was run?
Its IC50 is 0.121 µM.

How did the IC50 turn out when B3 was run?
Its IC50 is 0.18 µM.

With B4 as the binder, how does the IC50 read?
The IC50 was 2 µM.

With B5 as the binder, how does the IC50 read?
The IC50 was 5 µM.

B6 was tested. Which IC50 did it give?
The IC50 was 5 µM.

B7 was tested. Which IC50 did it give?
The IC50 was 5 µM.

Which IC50 does the source give for B8 here?
The IC50 was 1.91 µM.

B9 was tested. Which IC50 did it give?
Its IC50 is 5 µM.

How did the IC50 turn out when B10 was run?
Its IC50 is 5 µM.

For B11, which IC50 is on record?
Its IC50 is 5 µM.

With B12 as the binder, how does the IC50 read?
Its IC50 is 2.76 µM.

B13 was tested. Which IC50 did it give?
Its IC50 is 5 µM.

How did the IC50 turn out when B14 was run?
The IC50 was 5 µM.

Which IC50 does the source give for B15 here?
The IC50 was 5 µM.

target: T2, full-length beta-Catenin (Uniprot ID P35222) (Homo sapiens (Human), UniProt P35222 1-781); assay: fluorescence polarization competition; full-length beta-catenin + 5FAM-TCF4(10-53) probe as competitor; peptide titrated
T2 construct: Used full-length in the FP and AlphaScreen assays; also called B-Catenin; bCat
T2 sequence: T1 sequence
Procedure: as §1

For B16, which EC50 is on record?
The EC50 was 5 µM.

With B17 as the binder, how does the EC50 read?
The EC50 was 5 µM.

How did the EC50 turn out when B18 was run?
Its EC50 is 5 µM.

How did the EC50 turn out when B19 was run?
The EC50 was 5 µM.
